The target of assay [1] is T1, human PrRP receptor, GPR10, transfected in CHO cells (human, UniProt P49683 1-370).
T1 construct: whole, on cells; also called human GPR10 receptor; the human receptor GPR10 in CHO cells
T1 sequence (looked up): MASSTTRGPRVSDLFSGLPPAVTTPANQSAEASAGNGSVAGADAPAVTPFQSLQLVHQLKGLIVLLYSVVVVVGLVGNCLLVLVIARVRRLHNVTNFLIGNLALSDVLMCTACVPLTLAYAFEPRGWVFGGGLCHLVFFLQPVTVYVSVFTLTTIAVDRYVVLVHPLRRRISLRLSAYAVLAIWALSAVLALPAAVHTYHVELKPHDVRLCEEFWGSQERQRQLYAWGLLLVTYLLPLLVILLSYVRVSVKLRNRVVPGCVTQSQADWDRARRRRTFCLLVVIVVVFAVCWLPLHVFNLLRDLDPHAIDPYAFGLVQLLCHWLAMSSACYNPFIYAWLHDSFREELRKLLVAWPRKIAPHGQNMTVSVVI
Nature of the assay: competition with 125I-human PrRP31 on CHO cells with transfected human GPR10. Here is the method: CHO cells with transfected human PrRP receptor, GPR10 (Perkin Elmer, USA) were grown on 24-well plates coated with polyethyleneimine. The cells were grown to the optimal density of 40-80 thousand cells per well.
(§1) Plates were incubated for 60 minutes at room temperature. After incubation, the cells were solubilized in 0.1 mol/l solution of NaOH and the radioactivity bound to the cells was counted using a γ-counter. The experiments were performed in duplicate and repeated at least three times.

Assay [2] addresses T2, rat PrRP receptor in RC-4B/C cells (rat, UniProt Q64121 1-370).
T2 construct: whole, on cells; also called the rat receptor; GPR10
T2 sequence (looked up): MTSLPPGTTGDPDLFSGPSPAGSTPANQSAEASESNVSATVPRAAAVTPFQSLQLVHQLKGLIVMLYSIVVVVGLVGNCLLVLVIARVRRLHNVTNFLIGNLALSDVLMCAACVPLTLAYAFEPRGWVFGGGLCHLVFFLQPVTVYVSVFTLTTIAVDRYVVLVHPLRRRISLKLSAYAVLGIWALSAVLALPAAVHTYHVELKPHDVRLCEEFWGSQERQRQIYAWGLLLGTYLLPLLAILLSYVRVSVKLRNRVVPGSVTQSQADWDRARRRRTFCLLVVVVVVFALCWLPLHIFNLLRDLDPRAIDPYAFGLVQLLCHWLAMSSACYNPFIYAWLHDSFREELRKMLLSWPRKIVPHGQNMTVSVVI
Nature of the assay: competition with 125I-rat PrRP31 on RC-4B/C cells. Here is the method:
The rat pituitary cell line RC-4B/C (ATCC, Manassas, USA) was grown on 24-well plates which had their bottom coated with polyethyleneimine. The cells were grown to the optimal density of 300-450 thousand per well.
as §1
For evaluation of competitive binding experiments, the program Graph Pad Prism Software (San Diego, Calif., USA) was used. A method of nonlinear regression assuming one-site binding was used.

What is called Ki is the equilibrium dissociation constant of an inhibitor or competing ligand from its target. The low end stands for a stronger hold on the target, the high end for a looser hold on the target.

Where no end group is shown, it is not given here. [ ]: non-standard residue; d: D form. The star is where a group is joined. Myristoyl = CCCCCCCCCCCCCC(=O)*; Lauroyl = CCCCCCCCCCCC(=O)*; NMeA = CN[C@@H](C)C(=O)O; Nle = CCCC[C@H](N)C(=O)O

B1: analog no. 54 (peptide)
peptide: Lauroyl-TPDINPAWYASRGIRPVGRF-NH2
SMILES: CCCCCCCCCCCC(=O)N[C@H](C(=O)N1CCC[C@H]1C(=O)N[C@@H](CC(=O)O)C(=O)N[C@H](C(=O)N[C@@H](CC(N)=O)C(=O)N1CCC[C@H]1C(=O)N[C@@H](C)C(=O)N[C@@H](Cc1c[nH]c2ccccc12)C(=O)N[C@@H](Cc1ccc(O)cc1)C(=O)N[C@@H](C)C(=O)N[C@@H](CO)C(=O)N[C@@H](CCCNC(=N)N)C(=O)NCC(=O)N[C@H](C(=O)N[C@@H](CCCNC(=N)N)C(=O)N1CCC[C@H]1C(=O)N[C@H](C(=O)NCC(=O)N[C@@H](CCCNC(=N)N)C(=O)N[C@@H](Cc1ccccc1)C(N)=O)C(C)C)[C@@H](C)CC)[C@@H](C)CC)[C@@H](C)O
With B1, the Ki in assay [1] stood at 2.41 nM. In other words, the single-digit nanomolar range.

B2: analog no. 40 (peptide)
peptide: TPDINPAWY[NMeA]SRGIRPVGRF-NH2
modifications: N-terminus assumed
SMILES: CC[C@H](C)[C@H](NC(=O)CNC(=O)[C@H](CCCNC(=N)N)NC(=O)[C@H](CO)NC(=O)[C@H](C)N(C)C(=O)[C@H](Cc1ccc(O)cc1)NC(=O)[C@H](Cc1c[nH]c2ccccc12)NC(=O)[C@H](C)NC(=O)[C@@H]1CCCN1C(=O)[C@H](CC(N)=O)NC(=O)[C@@H](NC(=O)[C@H](CC(=O)O)NC(=O)[C@@H]1CCCN1C(=O)[C@@H](N)[C@@H](C)O)[C@@H](C)CC)C(=O)N[C@@H](CCCNC(=N)N)C(=O)N1CCC[C@H]1C(=O)N[C@H](C(=O)NCC(=O)N[C@@H](CCCNC(=N)N)C(=O)N[C@@H](Cc1ccccc1)C(N)=O)C(C)C
As for B2, the Ki in assay [1] turned out to be 8.72 nM; in assay [2], 49.4 nM.
With TPDINPAWYASRPFRPVGRF-NH2 [analog no. 44], the Ki in assay [1] worked out at 1.73 nM; in assay [2] it was 2.14 nM.

B3: analog no. 45 (peptide)
peptide: Myristoyl-TPDINPAWYASRPFRPVGRF-NH2
SMILES: CCCCCCCCCCCCCC(=O)N[C@H](C(=O)N1CCC[C@H]1C(=O)N[C@@H](CC(=O)O)C(=O)N[C@H](C(=O)N[C@@H](CC(N)=O)C(=O)N1CCC[C@H]1C(=O)N[C@@H](C)C(=O)N[C@@H](Cc1c[nH]c2ccccc12)C(=O)N[C@@H](Cc1ccc(O)cc1)C(=O)N[C@@H](C)C(=O)N[C@@H](CO)C(=O)N[C@@H](CCCNC(=N)N)C(=O)N1CCC[C@H]1C(=O)N[C@@H](Cc1ccccc1)C(=O)N[C@@H](CCCNC(=N)N)C(=O)N1CCC[C@H]1C(=O)N[C@H](C(=O)NCC(=O)N[C@@H](CCCNC(=N)N)C(=O)N[C@@H](Cc1ccccc1)C(N)=O)C(C)C)[C@@H](C)CC)[C@@H](C)O
Turning to B3, the Ki came out at 0.58 nM in assay [1] and 0.84 nM in assay [2].

B4: analog no. 46 (peptide)
peptide: [Nle]ETRTPDINPAWYTGRGIRPVGRF-NH2
modifications: N-terminus assumed
SMILES: CCCC[C@H](N)C(=O)N[C@@H](CCC(=O)O)C(=O)N[C@H](C(=O)N[C@@H](CCCNC(=N)N)C(=O)N[C@H](C(=O)N1CCC[C@H]1C(=O)N[C@@H](CC(=O)O)C(=O)N[C@H](C(=O)N[C@@H](CC(N)=O)C(=O)N1CCC[C@H]1C(=O)N[C@@H](C)C(=O)N[C@@H](Cc1c[nH]c2ccccc12)C(=O)N[C@@H](Cc1ccc(O)cc1)C(=O)N[C@H](C(=O)NCC(=O)N[C@@H](CCCNC(=N)N)C(=O)NCC(=O)N[C@H](C(=O)N[C@@H](CCCNC(=N)N)C(=O)N1CCC[C@H]1C(=O)N[C@H](C(=O)NCC(=O)N[C@@H](CCCNC(=N)N)C(=O)N[C@@H](Cc1ccccc1)C(N)=O)C(C)C)[C@@H](C)CC)[C@@H](C)O)[C@@H](C)CC)[C@@H](C)O)[C@@H](C)O
notes: shortened PrRP31 analog
On to B4, for which the Ki came out at 3.44 nM in assay [1] and 2.94 nM in assay [2].

Values taken from patent US9937235B2, “Lipidated peptides as anti-obesity agents” (USTAV ORGANICKE CHEMIE A BIOCHEMIE AKADEMIE VED CR, V.V.I, priority 2012, dated 2018).
